Tests used:
Fyn = Fyn (UniProt P06241); experiment: phosphorylation enrichment, bacterial display (enrichment ratio); higher = better substrate or ligand; peptides without Tyr show the background
EPHB2 = EPHB2 (UniProt P29323); experiment: as above
Fes = Fes (UniProt P07332); experiment: as above
Fer (mouse) = experiment: as above
FGFR3 = FGFR3 (UniProt P22607); experiment: as above
AncSZ = experiment: as above
FGFR1 = FGFR1 (UniProt P11362); experiment: as above
Hck = Hck (UniProt P08631); experiment: as above
c-Src = experiment: as above
EPHB1 = EPHB1 (UniProt P54762); experiment: as above
Jak2 = Jak2 (UniProt O60674); experiment: as above
Jak2, sequence (O60674 whole entry, looked up): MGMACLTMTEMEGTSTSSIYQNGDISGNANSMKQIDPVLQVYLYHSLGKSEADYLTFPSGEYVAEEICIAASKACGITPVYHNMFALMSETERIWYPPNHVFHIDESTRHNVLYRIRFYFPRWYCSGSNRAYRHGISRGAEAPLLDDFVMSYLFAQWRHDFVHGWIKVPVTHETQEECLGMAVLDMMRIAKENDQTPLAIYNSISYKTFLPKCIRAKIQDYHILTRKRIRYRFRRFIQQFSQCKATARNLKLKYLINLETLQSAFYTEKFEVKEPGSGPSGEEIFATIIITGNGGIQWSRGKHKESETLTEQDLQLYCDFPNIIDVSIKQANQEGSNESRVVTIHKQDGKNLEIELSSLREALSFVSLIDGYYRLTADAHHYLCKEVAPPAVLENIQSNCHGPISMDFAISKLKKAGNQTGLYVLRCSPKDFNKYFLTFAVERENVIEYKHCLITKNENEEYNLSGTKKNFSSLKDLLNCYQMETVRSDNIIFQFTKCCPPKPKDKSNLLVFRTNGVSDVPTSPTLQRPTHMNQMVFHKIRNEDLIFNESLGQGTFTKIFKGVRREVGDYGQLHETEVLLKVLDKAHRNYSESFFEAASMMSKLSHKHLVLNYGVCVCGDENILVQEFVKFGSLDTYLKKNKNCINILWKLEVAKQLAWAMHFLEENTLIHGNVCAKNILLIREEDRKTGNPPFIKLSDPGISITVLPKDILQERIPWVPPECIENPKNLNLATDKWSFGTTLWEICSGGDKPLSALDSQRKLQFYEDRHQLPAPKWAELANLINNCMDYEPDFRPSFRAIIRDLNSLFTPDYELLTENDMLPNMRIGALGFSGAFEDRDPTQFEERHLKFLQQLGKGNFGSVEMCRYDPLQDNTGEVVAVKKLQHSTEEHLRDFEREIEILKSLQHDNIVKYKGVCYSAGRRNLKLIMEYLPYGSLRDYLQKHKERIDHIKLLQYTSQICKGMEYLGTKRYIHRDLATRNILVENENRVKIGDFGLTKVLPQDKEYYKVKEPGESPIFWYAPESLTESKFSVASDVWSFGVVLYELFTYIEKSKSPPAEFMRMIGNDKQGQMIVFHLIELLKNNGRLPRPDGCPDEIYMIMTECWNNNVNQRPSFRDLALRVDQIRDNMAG

c-Abl (mouse) = experiment: as above
MERTK = MERTK (UniProt Q12866); experiment: as above
MERTK, sequence (Q12866 whole entry, looked up): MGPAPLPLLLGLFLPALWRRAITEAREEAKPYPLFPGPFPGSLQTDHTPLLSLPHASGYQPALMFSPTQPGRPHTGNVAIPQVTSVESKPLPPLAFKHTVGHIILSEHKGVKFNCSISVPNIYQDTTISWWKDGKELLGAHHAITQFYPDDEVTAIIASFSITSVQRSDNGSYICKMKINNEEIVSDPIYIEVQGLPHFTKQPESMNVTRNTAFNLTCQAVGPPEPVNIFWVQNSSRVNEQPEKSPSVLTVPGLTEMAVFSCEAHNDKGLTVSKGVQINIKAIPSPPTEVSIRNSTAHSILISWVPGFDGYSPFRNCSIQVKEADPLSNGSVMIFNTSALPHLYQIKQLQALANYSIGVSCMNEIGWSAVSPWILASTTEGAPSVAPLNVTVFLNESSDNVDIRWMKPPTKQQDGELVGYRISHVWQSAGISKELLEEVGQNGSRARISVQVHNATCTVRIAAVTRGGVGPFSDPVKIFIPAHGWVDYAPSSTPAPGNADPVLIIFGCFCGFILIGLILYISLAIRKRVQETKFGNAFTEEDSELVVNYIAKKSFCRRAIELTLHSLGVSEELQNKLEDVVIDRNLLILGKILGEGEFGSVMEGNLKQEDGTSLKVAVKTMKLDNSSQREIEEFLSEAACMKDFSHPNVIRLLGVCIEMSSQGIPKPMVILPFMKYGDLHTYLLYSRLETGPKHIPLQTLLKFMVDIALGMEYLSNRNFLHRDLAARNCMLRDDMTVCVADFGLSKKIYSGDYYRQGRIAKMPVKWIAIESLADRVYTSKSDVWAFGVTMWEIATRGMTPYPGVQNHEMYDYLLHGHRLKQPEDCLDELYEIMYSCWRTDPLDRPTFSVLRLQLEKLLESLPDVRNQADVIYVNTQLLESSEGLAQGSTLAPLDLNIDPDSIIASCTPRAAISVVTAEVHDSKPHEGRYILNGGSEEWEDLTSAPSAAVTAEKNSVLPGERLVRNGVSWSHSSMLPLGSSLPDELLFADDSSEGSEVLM

Grb2 SH2 = Grb2 SH2 (UniProt P62993); experiment: SH2 binding enrichment of the phosphorylated peptide, bacterial display (enrichment ratio); higher = better substrate or ligand; peptides without Tyr show the background
Grb2 SH2, sequence (P62993 whole entry, looked up): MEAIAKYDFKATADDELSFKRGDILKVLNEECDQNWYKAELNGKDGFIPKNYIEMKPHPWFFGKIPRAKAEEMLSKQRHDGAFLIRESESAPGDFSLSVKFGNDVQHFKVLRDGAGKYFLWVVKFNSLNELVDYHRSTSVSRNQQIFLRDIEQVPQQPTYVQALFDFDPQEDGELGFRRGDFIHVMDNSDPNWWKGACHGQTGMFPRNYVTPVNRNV

c-Src SH2 = experiment: as above
SHP2-C SH2 = experiment: as above
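For SH2 binding enrichment of the phosphorylated peptide, bacterial display in this document: peptide library displayed on the E. coli surface as eCPX fusions, selected cells deep-sequenced, score is each peptide's frequency after selection divided by its frequency in the input.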
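For phosphorylation enrichment, bacterial display in this document: 11-residue human phosphosite peptides and single-mutation variants displayed on the E. coli surface, counted by deep sequencing, each peptide's frequency after selection divided by its frequency in the unselected input library; frequency after pTyr selection over input frequency; kinase dosed for 20-30% of maximal phosphorylation in three min.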

EPHB2, sequence (P29323 whole entry, looked up): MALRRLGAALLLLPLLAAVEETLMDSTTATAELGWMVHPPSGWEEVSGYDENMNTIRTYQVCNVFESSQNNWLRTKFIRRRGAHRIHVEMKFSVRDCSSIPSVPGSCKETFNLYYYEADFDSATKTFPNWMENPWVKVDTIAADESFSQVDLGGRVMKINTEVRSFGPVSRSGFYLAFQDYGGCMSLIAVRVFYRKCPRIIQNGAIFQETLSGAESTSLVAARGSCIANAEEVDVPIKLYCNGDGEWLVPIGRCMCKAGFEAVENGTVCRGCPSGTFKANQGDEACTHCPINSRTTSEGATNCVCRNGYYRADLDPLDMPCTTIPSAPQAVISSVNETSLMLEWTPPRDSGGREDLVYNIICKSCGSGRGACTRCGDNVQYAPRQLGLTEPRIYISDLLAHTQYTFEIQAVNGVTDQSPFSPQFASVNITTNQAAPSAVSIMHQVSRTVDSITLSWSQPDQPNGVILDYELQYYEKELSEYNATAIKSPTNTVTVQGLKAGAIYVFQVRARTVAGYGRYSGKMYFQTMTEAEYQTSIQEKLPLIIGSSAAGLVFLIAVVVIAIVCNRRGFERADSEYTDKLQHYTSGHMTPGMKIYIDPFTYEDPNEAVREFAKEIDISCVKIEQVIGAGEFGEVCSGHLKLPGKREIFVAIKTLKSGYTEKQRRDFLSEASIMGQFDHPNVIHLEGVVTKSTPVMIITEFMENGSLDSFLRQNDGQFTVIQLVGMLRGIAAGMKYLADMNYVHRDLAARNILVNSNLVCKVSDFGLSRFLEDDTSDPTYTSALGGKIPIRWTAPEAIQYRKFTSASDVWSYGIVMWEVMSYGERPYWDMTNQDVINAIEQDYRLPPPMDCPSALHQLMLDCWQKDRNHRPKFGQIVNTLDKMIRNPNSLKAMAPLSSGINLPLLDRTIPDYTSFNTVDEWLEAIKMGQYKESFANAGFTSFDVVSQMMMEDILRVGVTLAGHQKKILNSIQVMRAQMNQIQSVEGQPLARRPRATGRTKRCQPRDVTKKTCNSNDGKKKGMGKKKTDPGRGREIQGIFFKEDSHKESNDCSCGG
FGFR3, sequence (P22607 whole entry, looked up): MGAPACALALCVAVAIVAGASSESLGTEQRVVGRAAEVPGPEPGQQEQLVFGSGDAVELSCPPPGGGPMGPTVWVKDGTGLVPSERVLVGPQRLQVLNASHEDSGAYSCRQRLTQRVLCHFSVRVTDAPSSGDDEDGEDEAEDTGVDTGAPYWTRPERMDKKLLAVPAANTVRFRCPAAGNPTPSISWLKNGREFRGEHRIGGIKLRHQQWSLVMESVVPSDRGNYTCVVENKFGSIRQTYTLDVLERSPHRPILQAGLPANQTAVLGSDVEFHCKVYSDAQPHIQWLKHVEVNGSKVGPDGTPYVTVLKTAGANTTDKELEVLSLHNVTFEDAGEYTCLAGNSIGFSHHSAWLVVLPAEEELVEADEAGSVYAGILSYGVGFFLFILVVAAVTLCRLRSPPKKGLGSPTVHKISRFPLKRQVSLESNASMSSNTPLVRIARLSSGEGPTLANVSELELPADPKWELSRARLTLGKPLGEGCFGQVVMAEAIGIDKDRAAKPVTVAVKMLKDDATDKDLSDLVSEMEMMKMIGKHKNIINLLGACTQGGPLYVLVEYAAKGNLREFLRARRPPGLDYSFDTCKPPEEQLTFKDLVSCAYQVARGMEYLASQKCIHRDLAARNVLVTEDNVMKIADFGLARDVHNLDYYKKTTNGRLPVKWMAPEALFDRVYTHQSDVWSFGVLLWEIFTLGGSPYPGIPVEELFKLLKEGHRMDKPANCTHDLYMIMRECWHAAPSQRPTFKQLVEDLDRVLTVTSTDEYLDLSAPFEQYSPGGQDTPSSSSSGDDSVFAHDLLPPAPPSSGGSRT
FGFR1, sequence (P11362 whole entry, looked up): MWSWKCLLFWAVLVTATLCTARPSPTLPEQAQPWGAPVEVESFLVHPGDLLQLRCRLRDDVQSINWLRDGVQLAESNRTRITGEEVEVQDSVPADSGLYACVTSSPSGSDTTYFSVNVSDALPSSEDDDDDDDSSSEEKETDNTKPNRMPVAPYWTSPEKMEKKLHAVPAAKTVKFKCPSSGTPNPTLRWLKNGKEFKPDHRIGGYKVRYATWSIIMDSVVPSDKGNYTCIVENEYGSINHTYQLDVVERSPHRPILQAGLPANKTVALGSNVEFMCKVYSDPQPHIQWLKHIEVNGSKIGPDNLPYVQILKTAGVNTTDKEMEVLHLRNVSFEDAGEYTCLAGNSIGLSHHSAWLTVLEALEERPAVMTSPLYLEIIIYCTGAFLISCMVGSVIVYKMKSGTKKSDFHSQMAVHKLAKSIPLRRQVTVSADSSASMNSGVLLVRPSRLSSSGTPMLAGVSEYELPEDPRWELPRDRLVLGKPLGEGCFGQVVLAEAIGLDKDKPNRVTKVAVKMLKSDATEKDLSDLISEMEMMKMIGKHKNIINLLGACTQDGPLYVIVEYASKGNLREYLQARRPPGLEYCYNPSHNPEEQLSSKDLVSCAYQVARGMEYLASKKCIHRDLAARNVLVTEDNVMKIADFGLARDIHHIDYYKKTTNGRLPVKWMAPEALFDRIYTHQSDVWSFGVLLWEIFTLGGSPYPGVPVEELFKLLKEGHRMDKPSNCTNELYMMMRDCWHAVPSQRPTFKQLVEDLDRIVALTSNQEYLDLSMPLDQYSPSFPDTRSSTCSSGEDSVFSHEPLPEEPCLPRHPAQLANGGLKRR

| Sequence | phosphorylation enrichment (Fyn) | phosphorylation enrichment (EPHB2) | phosphorylation enrichment (Fes) | phosphorylation enrichment (Fer (mouse)) | phosphorylation enrichment (FGFR3) | phosphorylation enrichment (AncSZ) | phosphorylation enrichment (FGFR1) | phosphorylation enrichment (Hck) | phosphorylation enrichment (c-Src) | phosphorylation enrichment (EPHB1) | phosphorylation enrichment (Jak2) | phosphorylation enrichment (c-Abl (mouse)) | phosphorylation enrichment (MERTK) | SH2 binding enrichment (Grb2 SH2) | SH2 binding enrichment (c-Src SH2) | SH2 binding enrichment (SHP2-C SH2) |
| --- | --- | --- | --- | --- | --- | --- | --- | --- | --- | --- | --- | --- | --- | --- | --- | --- |
| DTCPPYVLSQV [GJB4_Y237_G242V] | 0.573 | 0.635 | 1.11 | 1.2 | 0.776 | 1.01 | 0.475 | 0.606 | 0.606 | 0.685 | 0.969 | 0.668 | 0.432 | 0.77 | 0.624 | 0.797 |
| DGQVNYEEFVQ [CALM1_Y139] | 0.505 | 1.28 | 1.42 | 0.659 | 0.841 | 1.33 | 0.608 | 0.626 | 0.576 | 1.62 | 1.2 | 0.957 | 0.487 | 0.784 | 0.399 | 0.493 |
| CYCSWYRGWAP [TIMP3_Y195_G190C] | 0.721 | 0.632 | 1.08 | 3.41 | 1.02 | 1.03 | 1.19 | 1.01 | 3.7 | 0.628 | 1.04 | 0.882 | 0.733 | 1.31 | 1.08 | 1.26 |
| LVSCTYQLATG [FGFR2_Y608_R612T] | 0.596 | 0.668 | 1.3 | 0.615 | 0.764 | 1.41 | 0.559 | 0.631 | 0.952 | 0.717 | 1.05 | 0.83 | 0.546 | 0.729 | 0.456 | 0.739 |
| WQQQSYLDSGS [CTNNB1_Y30_I35S] | 0.423 | 0.528 | 0.741 | 0.675 | 0.536 | 0.781 | 0.561 | 0.45 | 0.363 | 0.436 | 0.581 | 0.56 | 0.397 | 0.733 | 0.481 | 0.582 |
| CTIIHYNFMCN [TP53_Y234_T231I_YF] | 0.482 | 0.553 | 1.54 | 0.686 | 0.993 | 1.12 | 0.524 | 0.56 | 0.445 | 0.718 | 1.5 | 0.825 | 0.434 | 1.71 | 1.23 | 1.73 |
| STDDGYIDLQF [TMEM230_Y29] | 0.564 | 0.472 | 1.09 | 0.584 | 1.01 | 1.22 | 1.01 | 0.521 | 0.488 | 0.701 | 1.19 | 0.695 | 0.513 | 0.834 | 0.986 | 0.764 |
| IVKAFYVRARA [AIPL1_Y268_YF] | 0.433 | 0.588 | 1.07 | 0.465 | 0.688 | 1.11 | 0.464 | 0.494 | 0.396 | 0.5 | 0.95 | 0.699 | 0.424 | 0.872 | 0.601 | 1.2 |
| DGLASYLDKVR [KRT12_Y139_R135G] | 0.422 | 0.414 | 0.757 | 0.365 | 0.51 | 0.664 | 0.363 | 0.375 | 0.414 | 0.41 | 0.631 | 0.685 | 0.415 | 0.872 | 0.437 | 0.737 |
| TTKVSYRASQP [MKI67_Y1737] | 0.311 | 0.337 | 0.489 | 0.432 | 0.334 | 0.602 | 0.355 | 0.326 | 0.343 | 0.3 | 0.475 | 0.638 | 0.352 | 0.962 | 0.533 | 0.83 |
| PMDTYYDSTRG [DYNC2H1_Y2231] | 1.43 | 1.37 | 1.31 | 0.799 | 2.3 | 1.5 | 3.15 | 1.86 | 1.91 | 1.28 | 1.14 | 1.15 | 0.827 | 0.666 | 0.742 | 0.44 |
| YYHCTYKKRMI [CLEC12A_Y242] | 0.59 | 0.601 | 1.21 | 0.558 | 3.12 | 1.37 | 4.79 | 0.78 | 0.599 | 0.525 | 1.29 | 0.994 | 1.48 | 1.25 | 1.11 | 0.966 |
| SHGQDYLVGNK [GSTA1_Y147] | 0.451 | 0.456 | 0.74 | 0.449 | 0.419 | 0.585 | 0.385 | 0.412 | 0.417 | 0.402 | 0.606 | 0.62 | 0.363 | 0.58 | 0.432 | 0.564 |
| FITVGYVDDTQ [HLA-B_Y51_S48T] | 0.529 | 0.611 | 1.21 | 0.528 | 0.741 | 0.999 | 0.658 | 0.517 | 0.432 | 0.681 | 0.877 | 0.898 | 0.482 | 0.779 | 0.736 | 1.1 |
| KASGKYYAMKI [AKT3_Y173] | 0.359 | 0.411 | 0.563 | 0.335 | 0.536 | 0.499 | 0.565 | 0.529 | 0.399 | 0.329 | 0.431 | 0.518 | 0.455 | 1.38 | 1.45 | 1.21 |
| PVQAAYRKVVA [HBB_Y131_Q132R] | 0.407 | 0.237 | 0.505 | 0.339 | 0.373 | 0.502 | 0.367 | 0.543 | 0.421 | 0.199 | 0.336 | 0.48 | 0.348 | 0.859 | 0.493 | 0.597 |
| RDMMDYMPQGV [CYP21A2_Y259_L261P] | 0.636 | 1.28 | 1.36 | 0.937 | 0.823 | 1.41 | 0.799 | 0.578 | 0.596 | 0.921 | 0.986 | 0.912 | 0.681 | 0.909 | 0.391 | 0.8 |
| FAAAGYGSLEA [EPHA10_Y959] | 0.443 | 0.485 | 0.844 | 0.487 | 0.535 | 0.86 | 0.507 | 0.436 | 1.14 | 0.403 | 0.675 | 0.747 | 0.469 | 0.926 | 0.515 | 0.701 |
| NGTVTYAIVAG [CDH23_Y1672] | 0.904 | 2.01 | 0.992 | 0.471 | 0.714 | 0.99 | 0.545 | 1.09 | 1.08 | 3.07 | 0.799 | 0.688 | 2.6 | 0.655 | 1.24 | 12.8 |
| LQTFHYHGHSM [PDHA1_Y289_R288H_YF] | 0.501 | 0.448 | 0.715 | 0.435 | 0.536 | 0.599 | 0.419 | 0.533 | 1.2 | 0.322 | 0.641 | 0.493 | 0.501 | 1.47 | 1.27 | 1.47 |
| TNIKRYHIAKG [HARS1_Y150_V155G] | 0.409 | 0.39 | 0.479 | 0.33 | 0.356 | 0.506 | 0.351 | 0.367 | 0.408 | 0.311 | 0.368 | 0.503 | 0.405 | 0.93 | 0.867 | 0.972 |
| PVKDGYQMAQP [CSF1R_Y873_L868P] | 0.433 | 0.474 | 1.11 | 0.591 | 0.694 | 0.682 | 1.05 | 0.833 | 0.574 | 0.451 | 0.521 | 0.278 | 0.393 | 0.838 | 0.527 | 0.673 |
| AKKVFYMIETR [SHH_Y253_V254M] | 0.439 | 0.622 | 1.24 | 0.561 | 0.881 | 1.15 | 0.448 | 0.444 | 0.472 | 0.606 | 1.02 | 0.673 | 0.386 | 1.46 | 1.06 | 1.01 |
| RGFDTYFGFLL [ARSB_Y165_YF] | 8.78 | 4.31 | 1.53 | 4.06 | 3.25 | 1.68 | 3.4 | 6.53 | 6.93 | 4.25 | 4.64 | 1.14 | 5.24 | 0.899 | 0.578 | 0.828 |
| IFGVSYGEYRY [CFTR_Y512_D513G] | 7.22 | 0.691 | 1.33 | 0.736 | 0.819 | 0.9 | 0.603 | 4.11 | 5.62 | 0.852 | 0.858 | 0.632 | 0.537 | 1.05 | 0.933 | 1.1 |
| KKFFSYAWPFF [BRDT_Y291_H288Y_YF] | 0.555 | 0.545 | 0.991 | 0.488 | 0.716 | 1.07 | 0.515 | 0.497 | 0.497 | 0.505 | 0.92 | 0.611 | 1.58 | 1.34 | 0.982 | 1.25 |
| HFMELYDLNRD [BBS2_Y648_R643H_YF] | 1.38 | 0.594 | 1.18 | 0.784 | 0.723 | 1.1 | 0.497 | 1.48 | 4.64 | 0.625 | 1.28 | 0.943 | 0.563 | 1.25 | 0.654 | 1.51 |
| TKFRNYLIPKG [CYP2C8_Y379] | 0.365 | 0.421 | 0.565 | 0.345 | 0.425 | 0.47 | 0.381 | 0.429 | 0.443 | 0.374 | 0.592 | 0.573 | 0.374 | 1.1 | 0.631 | 0.92 |
| LLKKIYLMLDN [STAT1_Y203_M202I] | 0.562 | 0.817 | 2.38 | 0.67 | 1.31 | 1.85 | 1.08 | 0.85 | 0.977 | 1.15 | 2.05 | 1.85 | 0.822 | 0.899 | 0.896 | 1.1 |
